The values below come from the supplement of paper PMC10724198.

± gives the standard deviation of the averaged measurements.
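Further: PSI is a weighted mean of sequencing reads over stability bins, variants kept only with over 10 reads, mCherry proximal and sfGFP distal, peptide attached via GGGS linker.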

This data set has as its system Saccharomyces cerevisiae. Put plainly: protein stability index of tFT-peptide fusion (C-terminal peptide) (PSI (0-1 scale)); higher = more stable (slower turnover). The settings on record: genetic background: wild type; temperature: 30 C. On the procedure: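 Multiplexed protein stability (MPS) profiling in S. cerevisiae. Random 12-aa peptides (tFT-X12 library) are fused to the C-terminus of a sfGFP-mCherry tandem fluorescent timer, after mCherry and a GGGS linker. Cells are FACS-sorted into 8 mCherry/sfGFP bins and deep-sequenced. The protein stability index (PSI) is the read-weighted bin average, scaled from 0 (unstable) to 1 (stable). Only peptides with >10 reads are reported; cells were grown at 30 °C in SC-His with glucose.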
In turn, GLFFISLFFPFL displayed a protein stability index of 0.575 ± 0.0096.
Regarding GLFVSLRGLSLS, the protein stability index stood at 0.71 ± 0.044.
GLGRRRGVGGVR came in with a protein stability index of 0.709 ± 0.0027.
On to GLGVCGTGIGGV, for which the protein stability index stood at 0.656 ± 0.014.
The sequence GLIVGLLGVSGF gave a protein stability index of 0.591 ± 0.0062.
GLKTLQTCRIIR showed a protein stability index of 0.691 ± 0.054.
Turning to GLLENLKKRSRG, the protein stability index worked out at 0.691 ± 0.07.
In turn, GLLRGHVFVGRG registered a protein stability index of 0.692 ± 0.029.
In turn, GLLSLPPRLPFL displayed a protein stability index of 0.672 ± 0.073.
For the sequence GLLTFPPNRSGG, the protein stability index amounted to 0.67 ± 0.05.
Next, GLMRDKEMRMPK: 0.68 ± 0.036; GLNVLVWALLSQ: 0.548 ± 0.032.
GLPCLSPPLAPS returned a protein stability index of 0.683 ± 0.034.
The sequence GLPRCMDWSIRR showed a protein stability index of 0.6764 ± 0.00099.
Sequence GLPTPSNVPPFG gave a protein stability index of 0.703 ± 0.01.
In the case of GLRQVPGDLAEG it was 0.699 ± 0.039; in that of GLSGVVGSRCHC, 0.713 ± 0.02; in that of GLSLFPVTFFLR, 0.585 ± 0.02.
In the case of GLSPDFRFMGVR it was 0.667 ± 0.029; in that of GLSSLVLRFFLP, 0.663 ± 0.025.
Next, GLSTPPSPALLR: 0.748 ± 0.013; GLTWFRQARAAL: 0.718 ± 0.039; GLVDARRRWCFS: 0.62 ± 0.0073.
For the sequence GLVHGSWGCQCD, the protein stability index worked out at 0.714 ± 0.015.
Sequence GLVRGGGGTVGG had a protein stability index of 0.81 ± 0.22.
Turning to GLVSSDVGFRGY, the protein stability index is 0.73 ± 0.019.
In turn, GLYHGFCLSGCL had a protein stability index of 0.678 ± 0.04.
In the case of GMGLWCLSGLFP it was 0.7131 ± 0.0067; in that of GMKDKSVRTIKK, 0.721 ± 0.0035; in that of GMLGVGGYGGLW, 0.717 ± 0.078.
With GNAKKRKNKEKK, the protein stability index was 0.651 ± 0.09.
Next, GNCVESCMWQRE: 0.704 ± 0.05; GNKAPHTRTIGG: 0.706 ± 0.028; GPALCPVWATYG: 0.591 ± 0.0086.
In the case of GPGGGGGLWVRV it was 0.617 ± 0.016; in that of GPGTSSSGLVFT, 0.692 ± 0.029.
In the case of GPKTFIRSTKEI it was 0.697 ± 0.03; in that of GPPLSPPLLLLL, 0.681 ± 0.046.
Consider GPPPLPSPPSHP, for which the protein stability index was 0.753 ± 0.1.
As to GPPPPPRPPLPP, the protein stability index turned out to be 0.665 ± 0.049.
For GPPTASPLVAPA, the protein stability index was 0.621 ± 0.02.
Next, GPRGWRASVWAG: 0.687 ± 0.07; GPRVFKPRTTHG: 0.663 ± 0.025; GPSFVVTVGNGG: 0.686 ± 0.02.
Regarding GPSVPPLPRHEL, the protein stability index amounted to 0.728 ± 0.051.
Next, GPSVRSTARGPG: 0.724 ± 0.12; GPVCVVSGVFTV: 0.665 ± 0.072; GPYDLPCLPLSA: 0.633 ± 0.014.
In the case of GQAGGRVEVREP it was 0.6887 ± 0.005; in that of GQCQERRKGGCA, 0.577 ± 0.0063; in that of GQCRFVEDVYVT, 0.685 ± 0.009.
In the case of GQMYTLATSAVV it was 0.602 ± 0.076.
Sequence GQRRDSSSEVWG yielded a protein stability index of 0.67 ± 0.017.
GQRWADGGFVEV: the protein stability index was 0.783 ± 0.1.
In the case of GQVTAHFRLARV it was 0.697 ± 0.049.
Next, GRAGGDGVGGGV: 0.6382 ± 0.0024; GRCHRFQWSVRR: 0.681 ± 0.015.
In the case of GRDKGNLQSLRR it was 0.732 ± 0.014; in that of GRGGLGGWEWDR, 0.712 ± 0.034; in that of GRGGLGWWEWDR, 0.7462 ± 0.0067.
The sequence GRGGVGWGEWDR had a protein stability index of 0.729 ± 0.056.
For the sequence GRGGWVHRRIGA, the protein stability index worked out at 0.676 ± 0.035.
Regarding GRGKKRKERAER, the protein stability index was 0.649 ± 0.045.
In the case of GRGRWRGGVAVE it was 0.802 ± 0.13.
